# Measured values taken from US20110263454A1, “Methods of Identifying Functional Characteristics of Promoters, Transcription Modifying Proteins and Transcription Modulating Agents” (Salk Institute for Biological Studies, priority 2008, published 2011).
# B1: RORg: RAR-related Orphan Receptor γ (NR1F3), cDNA driver (protein, UniProt P51449 1-518, looked up)
# Nuclear receptor ROR-gamma: MDRAPQRQHRASRELLAAKKTHTSQIEVIPCKICGDKSSGIHYGVITCEGCKGFFRRSQRCNAAYSCTRQQNCPIDRTSRNRCQHCRLQKCLALGMSRDAVKFGRMSKKQRDSLHAEVQKQLQQRQQQQQEPVVKTPPAGAQGADTLTYTLGLPDGQLPLGSSPDLPEASACPPGLLKASGSGPSYSNNLAKAGLNGASCHLEYSPERGKAEGRESFYSTGSQLTPDRCGLRFEEHRHPGLGELGQGPDSYGSPSFRSTPEAPYASLTEIEHLVQSVCKSYRETCQLRLEDLLRQRSNIFSREEVTGYQRKSMWEMWERCAHHLTEAIQYVVEFAKRLSGFMELCQNDQIVLLKAGAMEVVLVRMCRAYNADNRTVFFEGKYGGMELFRALGCSELISSIFDFSHSLSALHFSEDEIALYTALVLINAHRPGLQEKRKVEQLQYNLELAFHHHLCKTHRQSILAKLPPKGKLRSLCSQHVERLQIFQHLHPIVVQAAFPPLYKELFSTETESPVGLSK
# B2: HNF4a: Hepatocyte Nuclear Factor α (NR2A1), cDNA driver (protein, UniProt P41235 1-474, looked up)
# Hepatocyte nuclear factor …: MRLSKTLVDMDMADYSAALDPAYTTLEFENVQVLTMGNDTSPSEGTNLNAPNSLGVSALCAICGDRATGKHYGASSCDGCKGFFRRSVRKNHMYSCRFSRQCVVDKDKRNQCRYCRLKKCFRAGMKKEAVQNERDRISTRRSSYEDSSLPSINALLQAEVLSRQITSPVSGINGDIRAKKIASIADVCESMKEQLLVLVEWAKYIPAFCELPLDDQVALLRAHAGEHLLLGATKRSMVFKDVLLLGNDYIVPRHCPELAEMSRVSIRILDELVLPFQELQIDDNEYAYLKAIIFFDPDAKGLSDPGKIKRLRSQVQVSLEDYINDRQYDSRGRFGELLLLLPTLQSITWQMIEQIQFIKLFGMAKIDNLLQEMLLGGSPSDAPHAHHPLHPHLMQEHMGTNVIVANTMPTHLSNGQMCEWPRPRGQAATPETPQPSPPGGSGSEPYKLLPGAVATIVKPLSAIPQPTITKQEVI
# B3: RORa: RAR-related Orphan Receptor α (NR1F1), cDNA driver (protein, UniProt P35398 1-523, looked up)
# Nuclear receptor ROR-alpha: MESAPAAPDPAASEPGSSGADAAAGSRETPLNQESARKSEPPAPVRRQSYSSTSRGISVTKKTHTSQIEIIPCKICGDKSSGIHYGVITCEGCKGFFRRSQQSNATYSCPRQKNCLIDRTSRNRCQHCRLQKCLAVGMSRDAVKFGRMSKKQRDSLYAEVQKHRMQQQQRDHQQQPGEAEPLTPTYNISANGLTELHDDLSNYIDGHTPEGSKADSAVSSFYLDIQPSPDQSGLDINGIKPEPICDYTPASGFFPYCSFTNGETSPTVSMAELEHLAQNISKSHLETCQYLREELQQITWQTFLQEEIENYQNKQREVMWQLCAIKITEAIQYVVEFAKRIDGFMELCQNDQIVLLKAGSLEVVFIRMCRAFDSQNNTVYFDGKYASPDVFKSLGCEDFISFVFEFGKSLCSMHLTEDEIALFSAFVLMSADRSWLQEKVKIEKLQQKIQLALQHVLQKNHREDGILTKLICKVSTLRALCGRHTEKLMAFKAIYPDIVRLHFPPLYKELFTSEFEPAMQIDG
# Test system: mPgc1b promoter
# Assay: NHR-promoter luciferase screen, mPgc1b promoter
# Format: cell-based, mouse
# Details: PGC1b promoter reporter; co-transfected HR, without or with its ligand
# Procedure: (§1) Briefly, there were co-expressed 50 ng of each NHR/NHR homodimer or NHR/RXR heterodimer with 100 ng promoter/luciferase construct and 50 ng of LacZ (as a control for transfection efficiency) in CV-1 cells using Fugene HD (Roche) as a transfection reagent (alternatively or additionally, a CMV-YFP construct can be used as a transfection control). Each of the nuclear hormone receptors that were used in these experiments was cloned into a pcDNA3.1 vector and comprised a C-terminally linked V5H6 tag.
# (§2) The promoters that facilitate transcription of the indicated gene products that were tested using the protocols described herein are listed in the first row of the table. The nuclear hormone receptors and, where applicable, ligands that were assayed for their transcriptional effects on the promoters are listed in the first column of the table. The data represent the luciferase activity of each sample normalized to both the lacZ activity of that sample and to a control, e.g., no NHR or ligand, as customary in the art. As described previously, these normalizations allow the transcriptional activity of each reporter cell to be compared to other samples.
# (§3) Tables 7-40 show the transcriptional effects of the hormone receptors, and, where applicable, ligands (orphan receptors are screened without ligand), on each individual promoter. […] The control data of each table are shown in their last rows.
row,Molecule,"Luc. act., normalized to lacZ"
1,B1,15.9
2,B2,6.4
3,B3,10.8

# Same assay, conditions: PGC1b promoter reporter; co-transfected HR, without or with its ligand; relative to control
row,Molecule,"Normalized Luc. act., normalized to control"
1,B1,1.3
2,B2,0.5
3,B3,0.9

# Same assay, conditions: mPgc1b promoter-luciferase, CV-1 cells, NHR +/- ligand, control = 1.00
row,Molecule,"luciferase activity normalized to lacZ activity and to a control, mPgc1b"
1,B1,1.34
2,B2,0.54
3,B3,0.91

# Test system: MCP-1 promoter
# Assay: NHR-promoter luciferase screen, MCP-1 promoter
# Format: cell-based
# Details: MCP-1 promoter reporter; HR without or with its ligand; relative to control
# Procedure: (§4) The use, feasibility, and reproducibility of the functional NHR-promoter screen in a 48-well format have been tested validated. Briefly, there were co-expressed 50 ng of each NHR/NHR homodimer or NHR/RXR heterodimer with 100 ng promoter/luciferase construct and 50 ng of LacZ (as a control for transfection efficiency) in CV-1 cells using Fugene HD (Roche) as a transfection reagent (alternatively or additionally, a CMV-YFP construct can be used as a transfection control). Each of the nuclear hormone receptors that were used in these experiments was cloned into a pcDNA3.1 vector and comprised a C-terminally linked V5H6 tag. Twenty-four hours after transfection, appropriate ligands were added, where applicable, (see Table 5 for various ligands and concentrations and after 48 hrs, samples were assayed for luciferase and LacZ activity. To measure for luciferase activity 15 ul of sample was added to 30 ul of luciferase buffer (20 mM tricine, 1.07 mM MgCarbonate, 2.67 mM MgSulfate, 0.1 mM Naz-EDTA, 5 mM DTT, 5 mM ATP, 0.15 mg/ml CoA, 0.5 mM Luciferin), mixed briefly, and run in a Perkin Elmer Victor 5 luminometer. Thus, the functional NHR-promoter screen was used to observe the transcriptional activity of 29 promoters from various physiological pathways including inflammation, lipid and sugar metabolism, cholesterol transport, xenobiotic metabolism, and circadian rhythm.
# as §2, §3
row,Molecule,"Normalized Luc. act., normalized to control"
1,B1,2.8
2,B2,0.7
3,B3,1.4

# Same assay, conditions: MCP-1 promoter reporter; hormone receptor (HR) without or with its ligand
row,Molecule,"Luc. act., normalized to lacZ"
1,B1,301.2
2,B2,78.0
3,B3,150.7

# Same assay, conditions: transcription factor +/- ligand; control = 1.00
row,Molecule,mMCP-1 promoter reporter activity
1,B1,2.81
2,B2,0.73
3,B3,1.41

# Test system: hCYP3A4 promoter
# Assay: NHR-promoter luciferase screen, hCYP3A4 promoter
# Format: cell-based, human
# Details: CYP3A4 promoter; HR/ligand component
# Procedure: as §1, §2, §3
Molecule,"Luc. act., normalized to lacZ","Normalized Luc. act., normalized to control"
B1,3.4,0.8
B2,1.7,0.4
B3,1.6,0.4

# Same assay, conditions: transcription factor +/- ligand; control = 1.00
row,Molecule,hCYP3A4 promoter reporter activity
1,B1,0.76
2,B2,0.37
3,B3,0.36

# Test system: mDio1 promoter
# Assay: NHR-promoter luciferase screen, mDio1 promoter
# Format: cell-based, mouse
# Details: Dio1; HR component without or with its ligand
# Procedure: as §4, §2, §3
Molecule,"Luc. act., normalized to lacZ","Normalized Luc. act., normalized to control"
B1,5.7,1.3
B2,10.0,2.3
B3,2.1,0.5

# Same assay, conditions: transcription factor +/- ligand; control = 1.00
row,Molecule,mDio1 promoter reporter activity
1,B1,1.29
2,B2,2.25
3,B3,0.47

# Test system: mDio2 promoter
# Assay: NHR-promoter luciferase screen, mDio2 promoter
# Format: cell-based, mouse
# Details: Dio2; HR component without or with its ligand
# Procedure: as §4, §2, §3
Molecule,"Luc. act., normalized to lacZ","Normalized Luc. act., normalized to control"
B1,58.7,3.7
B2,33.6,2.1
B3,47.2,3.0

# Same assay, conditions: transcription factor +/- ligand; control = 1.00
row,Molecule,mDio2 promoter reporter activity
1,B1,3.74
2,B2,2.14
3,B3,3.01

# Test system: mABCA1 promoter
# Assay: NHR-promoter luciferase screen, mABCA1 promoter
# Format: cell-based, mouse
# Details: ABCA1 promoter; hormone receptor with or without its ligand
# Procedure: as §4, §2, §3
row,Molecule,"Luc. act., normalized to lacZ"
1,B1,29.4
2,B2,10.7
3,B3,33.0

# Same assay, conditions: ABCA1 promoter; hormone receptor with or without its ligand; relative to control
row,Molecule,"Normalized Luc. act., normalized to control"
1,B1,5.2
2,B2,1.9
3,B3,5.9

# Same assay, conditions: transcription factor +/- ligand; control = 1.00
row,Molecule,mABCA1 promoter reporter activity
1,B1,5.23
2,B2,1.90
3,B3,5.87
